Target: T1, ERK3, amino acids 1-316, bait fused to the Gal4 DNA binding domain (Saccharomyces cerevisiae, UniProt P04386 1-147; Q16659 1-316)
T1 construct: range 1-147;range 1-316; Bait cDNA made by PCR from brain cDNA; also called ERK3 protein kinase
Test: yeast two-hybrid
Source text: The new construct was selected directly in the yeast J693 for its ability to drive tryptophane synthesis (genotype of this strain: Mat α, ade2, his3, leu2, trp1, URA3::GAL1-lacZ LYS2::GAL1-HIS3 gal4del gal80del cyhR2). In these yeast cells, the bait is produced as a C-terminal fusion protein with the DNA binding domain of the transcription factor Gal4 (amino acids 1 to 147). A total human brain (person) cDNA library cloned into the yeast expression vector pACT2 was purchased from Clontech (human brain […] cDNA, cat. # HL4004AH), transformed into the yeast strain J692 (genotype of this strain: Mat a, ade2, his3, leu2, trp1, URA3::GAL1-lacZ LYS2::GAL1-HIS3 gal4del ga80del cyhR2), and selected for the ability to drive leucine synthesis. In these yeast cells, each cDNA is expressed as a fusion protein with the transcription activation domain of the transcription factor Gal4 (amino acids 768 to 881) and a 9 amino acid hemagglutinin epitope tag. J693 cells (Mat α type) expressing the bait were then mated with J692 cells ([…]) expressing proteins from the brain library. The resulting diploid yeast cells expressing proteins interacting with the bait protein were selected for the ability to synthesize tryptophan, leucine, histidine, and β-galactosidase. […]

B1: CDK9, amino acids 160-372, prey clone fused to the Gal4 activation domain (other, Saccharomyces cerevisiae;human, UniProt P04386 768-881, looked up, not shown: small tags and cut ends)
chain: ANFNQSGNIADSSLSFTFTNSSNGPNLITTQTNSQALSQPIASSNVHDNFMNNEITASKIDDGNNSKPLSPGWTDQTAYNAFGITTGMFNTTTMDDVYNYLFDDEDTPPNPKKEDGVLKLADFGLARAFSLAKNSQPNRYTNRVVTLWYRPPELLLGERDYGPPIDLWGAGCIMAEMWTRSPIMQGNTEQHQLALISQLCGSITPEVWPNVDNYELYEKLELVKGQKRKVKDRLKAYVRDPYALDLIDKLLVLDPAQRIDSDDALNHDFFWSDPMPSDLKGMLSTHLTSMFEYLAPPRRKGSQITQQSTNQSRNPATTNQTEFERVF
notes: Clone from the human brain cDNA library; also called PITARLE
  binding result: binds

— US20020104105A1 (MYRIAD GENETICS, published 2002)
